# Tests used:
# YFP-Clu (human) [1] = test: FRET or BRET; receptor (acceptor) photobleaching FRET in co-transfected HEK293T cells, CFP donor and YFP receptor, bleached at 515 nm for 60 s
# YFP-Clu (human) [2] = test: FRET or BRET; sensitized emission FRET in co-transfected HEK293T cells, CFP donor and YFP receptor, laser confocal microscope
substance,measurement,setting,value
CFP-SelR′ (from UniProt Q9NZV6 1-116) (enzyme),FRET efficiency,YFP-Clu (human) [1],41.8%
same,FRET efficiency,YFP-Clu (human) [2],40%

# From paper PMC3689823
